The values that follow come from patent US20110059851A1 (MOUNT SINAI SCHOOL OF MEDICINE OF NEW YORK UNIVERSITY, published 2011).

Numbering of substitutions follows the chain as printed.

This test addresses T1, V5-tagged SHOC2^S2G (human SHOC2 Ser2Gly mutant) (human, UniProt Q5RAV5 1-582 (Pongo abelii entry), limits assumed, N-myristoylation at the N-terminal glycine (Gly 2) after excision of the initiator methionine; [3H]myristic acid incorporation shown in Cos-1 cells).
T1 construct: Expressed transiently in Cos-1 cells, with human NMT1 co-transfected, from a V5-tagged human SHOC2 cDNA construct made by site-directed mutagenesis; Tested in cell lysates by co-immunoprecipitation; also called mutant SHOC2; not shown: V5 tag
T1 sequence: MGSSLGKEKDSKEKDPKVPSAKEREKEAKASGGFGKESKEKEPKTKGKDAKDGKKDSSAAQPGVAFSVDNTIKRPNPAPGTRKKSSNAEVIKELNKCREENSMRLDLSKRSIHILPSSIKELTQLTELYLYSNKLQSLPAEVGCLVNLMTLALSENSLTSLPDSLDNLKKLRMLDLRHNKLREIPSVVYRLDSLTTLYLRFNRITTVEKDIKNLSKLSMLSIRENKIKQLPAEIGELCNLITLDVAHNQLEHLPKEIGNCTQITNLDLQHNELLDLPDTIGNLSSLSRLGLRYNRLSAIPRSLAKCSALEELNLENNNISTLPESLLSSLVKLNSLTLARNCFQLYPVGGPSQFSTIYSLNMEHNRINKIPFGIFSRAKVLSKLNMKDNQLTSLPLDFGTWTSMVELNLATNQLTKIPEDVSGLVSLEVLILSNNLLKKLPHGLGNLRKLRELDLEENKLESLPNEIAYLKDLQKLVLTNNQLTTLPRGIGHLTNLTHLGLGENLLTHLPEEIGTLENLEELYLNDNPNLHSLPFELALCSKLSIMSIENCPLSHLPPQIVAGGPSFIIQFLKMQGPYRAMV
The test is described as follows: co-immunoprecipitation (anti-Myc or anti-V5, western blot) and confocal microscopy in COS-1 cells co-transfected with V5- and Myc-tagged proteins.

B1: Myc-tagged SHOC2^wt (wild-type human SHOC2) (other)
chain: T1 sequence with G2S
notes: Expressed transiently in Cos-1 cells from a Myc-tagged human SHOC2 cDNA construct and tested in cell lysates by co-immunoprecipitation; also called wild type SHOC2; wild-type protein; not shown: Myc tag
Take B1: the binding result is reported as “no binding”.
